Measurements as given in patent publication US20260209293A1 (Novo Nordisk, published 2026).
*1 amine or outer side, *2 acyl side, *3 side chain or, on linkers, in order; H or OH if unused. The star is where a group is joined. C18 diacid = O=C(O)CCCCCCCCCCCCCCCCC(=O)*; γGlu = O=C(O)[C@H](CCC(=O)[*:2])N[*:1]

T1: human amylin-3(a) receptor (human, UniProt P30988 25-474; O60896 24-148)
T1 sequence (looked up) 1: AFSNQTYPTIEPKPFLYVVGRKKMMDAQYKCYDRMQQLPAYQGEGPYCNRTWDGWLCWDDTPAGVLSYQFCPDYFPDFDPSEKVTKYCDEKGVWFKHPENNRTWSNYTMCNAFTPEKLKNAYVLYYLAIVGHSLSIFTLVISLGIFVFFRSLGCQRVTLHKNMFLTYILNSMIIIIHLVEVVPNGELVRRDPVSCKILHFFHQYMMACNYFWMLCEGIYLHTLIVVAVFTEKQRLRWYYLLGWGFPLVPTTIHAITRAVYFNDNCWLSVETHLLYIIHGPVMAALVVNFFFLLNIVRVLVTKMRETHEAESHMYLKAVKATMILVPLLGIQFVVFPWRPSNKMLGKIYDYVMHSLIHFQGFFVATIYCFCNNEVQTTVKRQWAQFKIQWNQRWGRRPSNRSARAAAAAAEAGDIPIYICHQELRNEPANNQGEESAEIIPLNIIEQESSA
T1 sequence (looked up) 2: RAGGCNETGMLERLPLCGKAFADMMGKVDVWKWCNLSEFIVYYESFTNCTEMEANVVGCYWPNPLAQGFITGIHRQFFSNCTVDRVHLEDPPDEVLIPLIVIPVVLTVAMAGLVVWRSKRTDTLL

T2: human calcitonin receptor (a) (human, UniProt P30988 25-474)
T2 sequence (looked up): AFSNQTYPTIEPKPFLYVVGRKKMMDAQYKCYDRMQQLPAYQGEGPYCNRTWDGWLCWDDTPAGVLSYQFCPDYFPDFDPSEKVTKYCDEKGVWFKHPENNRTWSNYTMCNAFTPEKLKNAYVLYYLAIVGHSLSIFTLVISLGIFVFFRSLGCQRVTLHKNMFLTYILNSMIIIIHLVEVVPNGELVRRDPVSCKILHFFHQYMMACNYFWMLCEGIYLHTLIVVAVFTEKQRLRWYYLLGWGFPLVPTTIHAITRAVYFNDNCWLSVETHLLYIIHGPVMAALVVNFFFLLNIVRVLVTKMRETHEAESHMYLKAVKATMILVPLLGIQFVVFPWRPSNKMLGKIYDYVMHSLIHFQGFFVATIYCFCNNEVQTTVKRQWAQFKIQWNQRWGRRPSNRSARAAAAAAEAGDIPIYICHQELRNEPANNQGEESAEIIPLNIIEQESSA


Tests used:
[1] = molecular target: T1, human amylin-3(a) receptor; assay: cell-based or functional assay
[2] = molecular target: T2, human calcitonin receptor (a); assay: cell-based or functional assay

Row | hAmyR3 potency, EC50 (pM); CRE-luciferase reporter in BHK cells [1] [pM] | hCalcR potency, EC50 (pM); CRE-luciferase reporter in BHK cells [2] [pM] | Binder
1 | 1.88 | 1.99 | {C18 diacid-γGlu}-ASNLATAQTQRLAEFLHHSSDPFGAIPSSTDVGPDTP-NH2 (SMILES CC[C@H](C)[C@H](NC(=O)[C@H](C)NC(=O)CNC(=O)[C@H](Cc1ccccc1)NC(=O)[C@@H]1CCCN1C(=O)[C@H](CC(=O)O)NC(=O)[C@H](CO)NC(=O)[C@H](CO)NC(=O)[C@H](Cc1c[nH]cn1)NC(=O)[C@H](Cc1c[nH]cn1)NC(=O)[C@H](CC(C)C)NC(=O)[C@H](Cc1ccccc1)NC(=O)[C@H](CCC(=O)O)NC(=O)[C@H](C)NC(=O)[C@H](CC(C)C)NC(=O)[C@H](CCCNC(=N)N)NC(=O)[C@H](CCC(N)=O)NC(=O)[C@@H](NC(=O)[C@H](CCC(N)=O)NC(=O)[C@H](C)NC(=O)[C@@H](NC(=O)[C@H](C)NC(=O)[C@H](CC(C)C)NC(=O)[C@H](CC(N)=O)NC(=O)[C@H](CO)NC(=O)[C@H](C)NC(=O)CC[C@H](NC(=O)CCCCCCCCCCCCCCCCC(=O)O)C(=O)O)[C@@H](C)O)[C@@H](C)O)C(=O)N1CCC[C@H]1C(=O)N[C@@H](CO)C(=O)N[C@@H](CO)C(=O)N[C@H](C(=O)N[C@@H](CC(=O)O)C(=O)N[C@H](C(=O)NCC(=O)N1CCC[C@H]1C(=O)N[C@@H](CC(=O)O)C(=O)N[C@H](C(=O)N1CCC[C@H]1C(N)=O)[C@@H](C)O)C(C)C)[C@@H](C)O)
2 | 1.28 | 1.63 | {C18 diacid-γGlu}-ASHLSTAQTARLAEFLHHSSDNFGPILPPTDVGSNTP-NH2 (SMILES CC[C@H](C)[C@H](NC(=O)[C@@H]1CCCN1C(=O)CNC(=O)[C@H](Cc1ccccc1)NC(=O)[C@H](CC(N)=O)NC(=O)[C@H](CC(=O)O)NC(=O)[C@H](CO)NC(=O)[C@H](CO)NC(=O)[C@H](Cc1c[nH]cn1)NC(=O)[C@H](Cc1c[nH]cn1)NC(=O)[C@H](CC(C)C)NC(=O)[C@H](Cc1ccccc1)NC(=O)[C@H](CCC(=O)O)NC(=O)[C@H](C)NC(=O)[C@H](CC(C)C)NC(=O)[C@H](CCCNC(=N)N)NC(=O)[C@H](C)NC(=O)[C@@H](NC(=O)[C@H](CCC(N)=O)NC(=O)[C@H](C)NC(=O)[C@@H](NC(=O)[C@H](CO)NC(=O)[C@H](CC(C)C)NC(=O)[C@H](Cc1c[nH]cn1)NC(=O)[C@H](CO)NC(=O)[C@H](C)NC(=O)CC[C@H](NC(=O)CCCCCCCCCCCCCCCCC(=O)O)C(=O)O)[C@@H](C)O)[C@@H](C)O)C(=O)N[C@@H](CC(C)C)C(=O)N1CCC[C@H]1C(=O)N1CCC[C@H]1C(=O)N[C@H](C(=O)N[C@@H](CC(=O)O)C(=O)N[C@H](C(=O)NCC(=O)N[C@@H](CO)C(=O)N[C@@H](CC(N)=O)C(=O)N[C@H](C(=O)N1CCC[C@H]1C(N)=O)[C@@H](C)O)C(C)C)[C@@H](C)O)
3 | 0.81 | 1.01 | {C18 diacid-γGlu}-AGSLSTAQTARLAEFLHHFGPILPPTDVGSETP-NH2 (SMILES CC[C@H](C)[C@H](NC(=O)[C@@H]1CCCN1C(=O)CNC(=O)[C@H](Cc1ccccc1)NC(=O)[C@H](Cc1c[nH]cn1)NC(=O)[C@H](Cc1c[nH]cn1)NC(=O)[C@H](CC(C)C)NC(=O)[C@H](Cc1ccccc1)NC(=O)[C@H](CCC(=O)O)NC(=O)[C@H](C)NC(=O)[C@H](CC(C)C)NC(=O)[C@H](CCCNC(=N)N)NC(=O)[C@H](C)NC(=O)[C@@H](NC(=O)[C@H](CCC(N)=O)NC(=O)[C@H](C)NC(=O)[C@@H](NC(=O)[C@H](CO)NC(=O)[C@H](CC(C)C)NC(=O)[C@H](CO)NC(=O)CNC(=O)[C@H](C)NC(=O)CC[C@H](NC(=O)CCCCCCCCCCCCCCCCC(=O)O)C(=O)O)[C@@H](C)O)[C@@H](C)O)C(=O)N[C@@H](CC(C)C)C(=O)N1CCC[C@H]1C(=O)N1CCC[C@H]1C(=O)N[C@H](C(=O)N[C@@H](CC(=O)O)C(=O)N[C@H](C(=O)NCC(=O)N[C@@H](CO)C(=O)N[C@@H](CCC(=O)O)C(=O)N[C@H](C(=O)N1CCC[C@H]1C(N)=O)[C@@H](C)O)C(C)C)[C@@H](C)O)

Second part, the binder before the results:

Row | Binder | hAmyR3 potency, EC50 (pM); CRE-luciferase reporter in BHK cells [1] [pM] | hCalcR potency, EC50 (pM); CRE-luciferase reporter in BHK cells [2] [pM]
4 | {C18 diacid-γGlu}-AGSLSTAQTARLAEFLHHSSDNFGPILPPTDVGSNTP-NH2 (SMILES CC[C@H](C)[C@H](NC(=O)[C@@H]1CCCN1C(=O)CNC(=O)[C@H](Cc1ccccc1)NC(=O)[C@H](CC(N)=O)NC(=O)[C@H](CC(=O)O)NC(=O)[C@H](CO)NC(=O)[C@H](CO)NC(=O)[C@H](Cc1c[nH]cn1)NC(=O)[C@H](Cc1c[nH]cn1)NC(=O)[C@H](CC(C)C)NC(=O)[C@H](Cc1ccccc1)NC(=O)[C@H](CCC(=O)O)NC(=O)[C@H](C)NC(=O)[C@H](CC(C)C)NC(=O)[C@H](CCCNC(=N)N)NC(=O)[C@H](C)NC(=O)[C@@H](NC(=O)[C@H](CCC(N)=O)NC(=O)[C@H](C)NC(=O)[C@@H](NC(=O)[C@H](CO)NC(=O)[C@H](CC(C)C)NC(=O)[C@H](CO)NC(=O)CNC(=O)[C@H](C)NC(=O)CC[C@H](NC(=O)CCCCCCCCCCCCCCCCC(=O)O)C(=O)O)[C@@H](C)O)[C@@H](C)O)C(=O)N[C@@H](CC(C)C)C(=O)N1CCC[C@H]1C(=O)N1CCC[C@H]1C(=O)N[C@H](C(=O)N[C@@H](CC(=O)O)C(=O)N[C@H](C(=O)NCC(=O)N[C@@H](CO)C(=O)N[C@@H](CC(N)=O)C(=O)N[C@H](C(=O)N1CCC[C@H]1C(N)=O)[C@@H](C)O)C(C)C)[C@@H](C)O) | 1.36 | 1.58
5 | {C18 diacid-γGlu}-AGELSTAQTQRLAEFLHHSSDPFGAIPSSTDVGPDTP-NH2 (SMILES CC[C@H](C)[C@H](NC(=O)[C@H](C)NC(=O)CNC(=O)[C@H](Cc1ccccc1)NC(=O)[C@@H]1CCCN1C(=O)[C@H](CC(=O)O)NC(=O)[C@H](CO)NC(=O)[C@H](CO)NC(=O)[C@H](Cc1c[nH]cn1)NC(=O)[C@H](Cc1c[nH]cn1)NC(=O)[C@H](CC(C)C)NC(=O)[C@H](Cc1ccccc1)NC(=O)[C@H](CCC(=O)O)NC(=O)[C@H](C)NC(=O)[C@H](CC(C)C)NC(=O)[C@H](CCCNC(=N)N)NC(=O)[C@H](CCC(N)=O)NC(=O)[C@@H](NC(=O)[C@H](CCC(N)=O)NC(=O)[C@H](C)NC(=O)[C@@H](NC(=O)[C@H](CO)NC(=O)[C@H](CC(C)C)NC(=O)[C@H](CCC(=O)O)NC(=O)CNC(=O)[C@H](C)NC(=O)CC[C@H](NC(=O)CCCCCCCCCCCCCCCCC(=O)O)C(=O)O)[C@@H](C)O)[C@@H](C)O)C(=O)N1CCC[C@H]1C(=O)N[C@@H](CO)C(=O)N[C@@H](CO)C(=O)N[C@H](C(=O)N[C@@H](CC(=O)O)C(=O)N[C@H](C(=O)NCC(=O)N1CCC[C@H]1C(=O)N[C@@H](CC(=O)O)C(=O)N[C@H](C(=O)N1CCC[C@H]1C(N)=O)[C@@H](C)O)C(C)C)[C@@H](C)O) | 2.43 | 1.58
